Measured values as given in the nanobody polyreactivity screen of Harvey et al. (2022).

Assay: yeast display, Sf9 membrane polyspecificity reagent, FACS + sequencing; frameworks hold sequencing errors
How it was run: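 Nanobodies came from a synthetic yeast display library in Saccharomyces cerevisiae BJ5465, induced with galactose for 36–48 hours and stained for 1 hour at 4 °C with 10% biotinylated, detergent-solubilized Sf9 membrane reagent. Cells were enriched on streptavidin microbeads and then FACS-sorted, with low and high (top ~1%) gates set on anti-HA fluorescence for expression and streptavidin fluorescence for reagent binding. Each polyreactivity label reflects the gate a clone came from. Genes were amplified by colony PCR, sequenced by MiSeq 2 × 250 and filtered by CDR length.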

Row | Sequence | polyreactivity (PSR sort gate)
1 | QVQLVESGGGLVQAGGSLRLSCAASGRTFWKYAMGWYRQAPGKERELVAAITASGARTYYADSVKGRFTISRDNAKNTVYLQLNSLKPEDTAVYYCNAGSVSDRQMDYWGQGTQVTVSS | low polyreactivity
2 | QVQLVESGGGLVQAGGSLRLSCAASGRTFWKYVMGWYRQAPGKEREVVAVISRPAGSTYYADSVKGRFTISRDNAKNTVYLQMNSLKPEETAVYYCNKPGGQSLGGYNYWVQGTQVTVSS | low polyreactivity
3 | QVQLVESGGGLVQAGGSLRLSCAASGRTFWLYAMGWYRQATGKERELVAGISRGGRTYYADSVKGRFTISRDNAKNTVYLQMNSLKPEDTAVYYGAADRYTVRMDCWGQGTQVTVSS | high polyreactivity
4 | QVQLVESGGGLVQAGGSLRLSCAASGRTFWNAMGWYRQAPGKERELVATITSGGITNYADSVKGRFTISRDNAKNTVYLQMNSLKPEDTAVYYCAARPYSWRNYRPSDYWGQGTQVTVSS | high polyreactivity
5 | QVQLVESGGGLVQAGGSLRLSCAASGRTFWNYAMGWYRQAPGKERELVAAIRSSGGRTYYADSVKGRFTISRDNAKNTVYLQMNSLKPEDTAVYYCAAYGFIEGIGTYDYWGQGTQVTVSS | high polyreactivity
6 | QVQLVESGGGLVQAGGSLRLSCAASGRTFWPNVMGWYRQAPGKERELVAAITWGDASTYYADSVKGRFTISRDNAKNTVYLQMNSLKPEDTAVYYCAASDYGRTYDYWGQGTQVTVSS | low polyreactivity
7 | QVQLVESGGGLVQAGGSLRLSCAASGRTFWQYAMGWYRQAPGKERELVAAIRYSGGSTYYADSVKGRFTISRDNAKNTVYLQMNSLKPEDTAVYYCAKRLKPGFYYWGQGTQVTVSS | high polyreactivity
8 | QVQLVESGGGLVQAGGSLRLSCAASGRTFWRYAMGWYIQAPGKERELVAAISSSGITYYADSVKGRFTISRDNAKNTVYLQMNSLKPEDTAVYYCAVRWGRGFWGQGTQVTVSS | high polyreactivity
9 | QVQLVESGGGLVQAGGSLRLSCAASGRTFWRYAMGWYRQAPGKERELVARISSGGSTYYADSVKGRFTISRDNAKNTVYLQINSLKPEDTAVYYCAVLSRHRRVPWYRYNYWGQGTQVTVSS | low polyreactivity
10 | QVQLVESGGGLVQAGGSLRLSCAASGRTFWRYAMGWYRQAPGKERELVARISWRGGSTNYADSVKGRFTISRDNAKITVYVQMNSLKAEDTAVYYCAADNSRYFLTGYDYWGQGTQVTVSS | low polyreactivity
11 | QVQLVESGGGLVQAGGSLRLSCAASGRTFWSNAMGWYIQAPGKERELVAVIYTTTGNTYYADSVKGRFSISRDYAKNTVYLQMNSLKPEDTAVYYCNTRSGAFFLSKPYDYWGQGTQVTVSW | low polyreactivity
12 | QVQLVESGGGLVQAGGSLRLSCAASGRTFWSNAMGWYRQAPGKERELVADITLSGGRTYYADSVKGRFTISRDNAKNTVYLHMNILKPEDTAVYYCAASATPSGVGMDYWGQGTQVTVSS | low polyreactivity
13 | QVQLVESGGGLVQAGGSLRLSCAASGRTFWSNAMGWYRQAPGKERELVATISSGGGNTYYADSVKGRFTISRDNAKNTVYLQLNSLKPEDTAVYYCAATKYRWTYAASFGYWGQGTQVTVSS | high polyreactivity
14 | QVQLVESGGGLVQAGGSLRLSCAASGRTFWSNGMGWYRQAPGKERELVASISTSGGRTYYADSVKGRFTISRDNAKNTVYLQMNSLKPEDSAVYYCAARTVYRGRAYDYWGQGTQVTVSS | high polyreactivity
15 | QVQLVESGGGLVQAGGSLRLSCAASGRTFWSYAMGWYRQAPGKERELVAAITSSGGTTNYADSVKGRFTISRDNAKNTVYLQMNSLKPEDTAVYYCAAYSWYFGSRYDYWGQGTQVTVSS | low polyreactivity
16 | QVQLVESGGGLVQAGGSLRLSCAASGRTFWTNAMGWYRQAPGKERELVAAISWTTGSTNYADSVKGRFTISRDNAKNTVYLQMNSLKPEDTAVYYCAAQTYCTFHTYYYWGQGTQVTVSS | low polyreactivity
17 | QVQLVESGGGLVQAGGSLRLSCAASGRTFWVYAMGWYRQAPGKERELVAGISWDDGSTDYADSVKGRFTISRDNAKNTVYLQMNSLKPEDTAVYYCNAGEYYKGYYYWGQGTQVTVSS | low polyreactivity
18 | QVQLVESGGGLVQAGGSLRLSCAASGRTFWVYAMGWYRQAPGKERELVASISWSVGSTYYADSVKGRFTISRDNAKNTVYLQMNSLKPEDTAVYYCNKTTLLTVEYDYWGQGSQVTVSS | low polyreactivity
19 | QVQLVESGGGLVQAGGSLRLSCAASGRTFWWNAMAWYTQAPGKERELVAVISKRGGTTYYADSVKGRFTNSRDNAKNTVYLPMNSLKPEDTAVYVFAADQQSHYGYWGQGTQVTVSS | high polyreactivity
20 | QVQLVESGGGLVQAGGSLRLSCAASGRTFWWYAMGWYRQAPGKERELVAAITWSTGITFYADSVKGRFTISRDNAKNTVYLQMNILKPEDTAVYYCAADTGTFFGGFDYWGQGTQVTVSS | high polyreactivity
21 | QVQLVESGGGLVQAGGSLRLSCAASGRTFWWYAMGWYRQAPGKERELVADINGSGGSTYYADSVKGRFTISRDNAKHTVYLQMNSLKPEDTAVYYCAADYYRYIHSVVYSIYDYWGQGTQVTVSS | low polyreactivity
22 | QVQLVESGGGLVQAGGSLRLSCAASGRTFWWYAMGWYRQEPGKERELVAAITWSGGSTYYADSVKGRFTISRDNAKNTVYLQMNSLKPEDTAVYYCAAYVHNKYDYWGQGTQVTVSS | low polyreactivity

Row | Sequence | polyreactivity (PSR sort gate)
23 | QVQLVESGGGLVQAGGSLRLSCAASGRTFWYYAMGGYRQAPGKERELVAYADSVKGRFTISRDNAKNTVYLQMNSLKPEDTAVYYCAVGPVVWFSSSLYYTDYYYWGQGTQVTVSS | low polyreactivity
24 | QVQLVESGGGLVQAGGSLRLSCAASGRTFWYYAMGWNRQAPGKERELVAAITRGTSTYADSVKGRFTISRDNAKNTVYLQMNSLKPEDTAVFYCAADTWVTRNSRYDYWGQGTQVTVSS | high polyreactivity
25 | QVQLVESGGGLVQAGGSLRLSCAASGRTFWYYAMGWYRQAPGKEREFVAAISWSGGSTYYADSVKGRFTISRDNAKNTVYLQMNTLKPEDSAVYYCAASPVWWYDYWGQGTQVTVSS | low polyreactivity
26 | QVQLVESGGGLVQAGGSLRLSCAASGRTFWYYTMGWYRQAPGKERELVAAISSGGRTNYADSVKGRFTISRDNAKITVYLQMNSLKPEDTAVYYCATSRYYKYVERDYWGQGTQVTVSS | high polyreactivity
27 | QVQLVESGGGLVQAGGSLRLSCAASGRTFWYYTMGWYRQAPGKERELVAANTSVGSTYYADSVKGRFTISRDNAKNTVYLQMNSLKPEDTAVYYCATLYSYTHQSFDHWGQGTQVTVSS | high polyreactivity
28 | QVQLVESGGGLVQAGGSLRLSCAASGRTFWYYTMGWYRQAPGKERELVASITYRGGSTYYADSVKGRFTISRDNAKNNVYLQMNSLKPEDTAVYYCNARYKRYSYDYWGQGTQVTVSS | high polyreactivity
29 | QVQLVESGGGLVQAGGSLRLSCAASGRTFYANAMGWSRQAPGRERELVAAISTGGDGTYYADSVKGRFTISRDYAKITVYLQMNSLKPEDTAVYDCAVRHRASGILYYYWGQGTQVTVSS | low polyreactivity
30 | QVQLVESGGGLVQAGGSLRLSCAASGRTFYANAMGWYRQAPGKERELVAAISSNGGSTYYADSVKGRFTISRDNAKNTVYLQMNSLKPEDTAVYYCAVVSRYKAWRKYDYWGQGTQVTVSS | high polyreactivity
31 | QVQLVESGGGLVQAGGSLRLSCAASGRTFYAYAMGWSRQAPGKERELVAAITSGASTYYADSVKGRFTISRDNAKNTVYLQMNSLKPEDTAVYYCAKRVRYYKPGYDYWGQGTQVTVSS | low polyreactivity
32 | QVQLVESGGGLVQAGGSLRLSCAASGRTFYAYAMGWYRQAPGKERELVAAIRISGTSTYYADSVKGRFTISRDNAKNTVYLQMNSLKPEDTAVYYCARYVKLSGYGFYYWGQGTQVTVSS | high polyreactivity
33 | QVQLVESGGGLVQAGGSLRLSCAASGRTFYAYAMGWYRQAPGKERELVAVITRSGGRTNYADSVKGRFTISRDNAKNTVYLQMNSLKPEDTAVYYCAARADWRQVSFYYWGQGTQVTVSS | high polyreactivity
34 | QVQLVESGGGLVQAGGSLRLSCAASGRTFYDNAMGWYRQAPGKERELVAAITKSGGRTYYADSVKGRFTISRDNAKNTVYLQMNSLKPEDTAVYYCAASWPNYLYEYWGQGTQVTVSS | high polyreactivity
35 | QVQLVESGGGLVQAGGSLRLSCAASGRTFYDYAMGWYREAPGKEMELVASIRGSDGSTYYADSVKGRFTISRDKAKNTVYLQMNSLKPEDTSVYYCAARGFYGTNGRVYITSYYYLGQGTQVTVSS | high polyreactivity
36 | QVQLVESGGGLVQAGGSLRLSCAASGRTFYDYAMGWYRQAPGKERELVAAITYSGGSTFYADSVKGRFTISRDNAKNTVYLQMNSLKPEDTAVYYCAAEVLLLVGAAEYDYWGQGTQVTVSS | low polyreactivity
37 | QVQLVESGGGLVQAGGSLRLSCAASGRTFYDYAMGWYRQAPGKESEFVAAITDRDASTSYADSVKGRFTISRDNAKNTVYLQMNSLKPEDTAVYYCAADQYWYKPYVGELYDYDYWGQGTQVTVSS | low polyreactivity
38 | QVQLVESGGGLVQAGGSLRLSCAASGRTFYDYARGWYRQGPGKERELVAAITSGGSTNYADSVKGRFTISRDNAKNTVYLQMNSLKPEDTAVYYCAADDCYVWGFDMNYWGQGTQVTVSS | high polyreactivity
39 | QVQLVESGGGLVQAGGSLRLSCAASGRTFYEYAMGWYRQAPGKERELVAGITSGGSTNYADSVKGRFTISRDNAKNTVYLQMNSLKPEDTAVYYCDASYWGYEYDYWGQGTQVTVSS | low polyreactivity
40 | QVQLVESGGGLVQAGGSLRLSCAASGRTFYFNAMGWYRQAPRKESELVAAISSGASTYYADSVKGRFTISRDNAKNTVNLQMISLKPEDTAVYYCAAEFWTQWSGYEYWGQGTQVTVSS | high polyreactivity
41 | QVQLVESGGGLVQAGGSLRLSCAASGRTFYFNTLGWERQAPGKERELVAAISSGVNTYYADSVKGRFTISRDNAKTTVYLQMNSLKPEDTAVYYCNADYIHTGDYLWYFLYDYWGQGTQVTVSS | high polyreactivity
42 | QVQLVESGGGLVQAGGSLRLSCAASGRTFYFYAMGWYRQAPGKERELVAAITSRVGRTYYADSVKGRFTISRDTAKNTVYLQMNSLKPEDTAVYDCAAEGVYRMGYWGQGTQVTVSS | high polyreactivity
43 | QVQLVESGGGLVQAGGSLRLSCAASGRTFYFYVMGWYRQAPGKERELVASITSGGSTNYADSVKGRFTISRDNAKNTVYLQMNSLKPEDTAVYYCAAALPASTSGTQPYDYWGQGTQVTVSS | low polyreactivity
